In patent publication US9493781B2, “Synthetic brassica-derived chloroplast transit peptides” (DOW AGROSCIENCES LLC, priority 2012, dated 2016):

Tests used:
Type in all cases: in vivo, Arabidopsis thaliana
[1] = system: Arabidopsis; assay: Heritability progeny test of T1 families (T2 plants) with glufosinate, Arabidopsis; conditions: progeny test of 100 T2 plants, glufosinate 200 g ae/ha
How it was run: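 Self-pollinated T1 Arabidopsis events gave T2 seed; 100 random T2 siblings were sprayed with glufosinate at 200 g ae/ha and scored resistant/sensitive, segregation tested by Chi square against 3:1.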

[2] = system: Arabidopsis; assay: dgt-28, dgt-32, dgt-33, dgt-3, dgt-7 transformed Arabidopsis (T1, T2, T3) response to postemergence glyphosate, % visual injury; conditions: for % Injury Ave / % Injury Range (%) / No. plants with 20-40% injury / No. plants with <20% injury / No. plants with >40% injury: 14 days after application; for Glyphosate tolerance: T1 Arabidopsis
How it was run: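 Transgenic T1, T2 and T3 Arabidopsis (low-copy events for T2/T3, hemizygous and homozygous in T2) sprayed postemergence with glyphosate at 105, 420, 1,680 or 3,360 g ae/ha. Visual injury scored 2 weeks after treatment as mean, SD and range. Non-transformed Columbia served as sensitive control.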

[3] = system: Arabidopsis; assay: dgt-31, dgt-32, dgt-33 v1 transformed T1 Arabidopsis response to glyphosate, % visual injury 2 WAT
Method: Selection of transformed plants. Freshly harvested T1 seed [dgt-31, dgt-32, and dgt-33 v1 gene] were allowed to dry at room temperature and shipped to Indianapolis for testing. T1 seed was sown in 26.5×51-cm germination trays (T.O. Plastics Inc., Clearwater, Minn.), each receiving a 200 mg aliquots of stratified T1 seed (˜10,000 seed) that had previously been suspended in 40 mL of 0.1% agarose solution and stored at 4° C. for 2 days to complete dormancy requirements and ensure synchronous seed germination.
Sunshine Mix LP5 (Sun Gro Horticulture Inc., Bellevue, Wash.) was covered with fine vermiculite and subirrigated with Hoagland's solution until wet, then allowed to gravity drain. Each 40 mL aliquot of stratified seed was sown evenly onto the vermiculite with a pipette and covered with humidity domes (KORD™ Products, Bramalea, Ontario, Canada) for 4-5 days. Domes were removed once plants had germinated prior to initial transformant selection using glufosinate postemergence spray (selecting for the co-transformed dsm-2 gene).
Six days after planting (DAP) and again 10 DAP, T1 plants (cotyledon and 2-4-lf stage, respectively) were sprayed with a 0.1% solution of IGNITE™ herbicide (280 g ai/L glufosinate, Bayer Crop Sciences, Kansas City, Mo.) at a spray volume of 10 mL/tray (703 L/ha) using a DeVilbiss™ compressed air spray tip to deliver an effective rate of 200 g ae/ha glufosinate per application. Survivors (plants actively growing) were identified 4-7 days after the final spraying. Surviving plants were transplanted individually into 3-inch pots prepared with potting media (Metro Mix 360™). Plants reared in the greenhouse at least 1 day prior to tissue sampling for copy number analyses.
T1 plants were sampled and copy number analysis for the dgt-31, dgt-32, and dgt-33 v1 gene were completed. T1 plants were then assigned to various rates of glyphosate so that a range of copies were among each rate. For Arabidopsis, 26.25 g ae/ha glyphosate is an effective dose to distinguish sensitive plants from ones with meaningful levels of resistance. Elevated rates were applied to determine relative levels of resistance (105, 420, 1680, or 3360 g ae/ha).
All glyphosate herbicide applications were made by track sprayer in a 187 L/ha spray volume. Glyphosate used was of the commercial Durango dimethylamine salt formulation (480 g ae/L, Dow AgroSciences, LLC).
T1 plants selected above were subsequently transplanted to individual pots and sprayed with various rates of commercial glyphosate. Table 16 compares the response of dgt-31, dgt-32, and dgt-33 v1 and control genes to impart glyphosate resistance to Arabidopsis T1 transformants. Response is presented in terms of % visual injury 2 WAT. […] An arithmetic mean and standard deviation is presented for each treatment. […]

[4] = Table 8, T1 Arabidopsis, 105 g ae/ha glyphosate
[5] = Table 8, T1 Arabidopsis, 420 g ae/ha glyphosate
[6] = Table 8, T1 Arabidopsis, 1680 g ae/ha glyphosate
[7] = Table 8, T1 Arabidopsis, 3360 g ae/ha glyphosate
[8] = Table 10, T1 Arabidopsis, 1,680 g ae/ha glyphosate
[9] = Table 12, T2 Arabidopsis, 1 copy, 420 g ae/ha glyphosate
[10] = Table 12, T2 Arabidopsis, 1 copy, 840 g ae/ha glyphosate
[11] = Table 12, T2 Arabidopsis, 1 copy, 1680 g ae/ha glyphosate
[12] = Table 12, T2 Arabidopsis, 1 copy, 3360 g ae/ha glyphosate
[13] = with TraP8 and with TraP14 / TraP24 respectively

B1: pDAB105534: TraP13 v2 -- dgt-28 v5: binary construct TraP13 v2:dgt-28 v5 (SEQ ID NO:37) (nucleic acid)
DNA: ATGGCACAAGTTAGCAGAATCTGTAATGGTGTGCAGAACCCATCTCTTATCTCCAATCTCTCAAAGTCCAGCCAACGTAAGTCTCCCCTCAGCGTGTCTCTGAAAACTCAGCAGCCCAGAGCTTCTTCATGGGGTTTGAAGAAATCTGGAACGATGCTTAACGGCTCAGTCATTCGTCCGGTTAAGGTGACAGCCTCCGTCTCCGCTGCTAGAGGGATGCCAGCCTTGTCTTTACCTGGATCAAAGAGTATCACAGCTAGGGCACTCTTTCTTGCTGCTGCTGCTGATGGGGTTACTACTTTGGTGAGGCCATTGAGAAGTGACGACACAGAAGGATTCGCTGAGGGGTTAGTTCGTTTAGGCTATCGTGTAGGGAGGACACCCGATACTTGGCAAGTCGATGGCAGACCACAAGGACCAGCAGTGGCTGAGGCTGACGTCTACTGTAGAGACGGAGCAACCACCGCTAGATTCTTGCCAACCTTAGCAGCTGCTGGTCACGGAACATACAGATTTGATGCTTCACCACAGATGAGGAGACGTCCTCTTTTGCCCTTAAGCAGAGCCTTGAGGGATTTGGGTGTCGATCTTAGACACGAAGAAGCTGAAGGTCATCACCCTCTGACTGTCCGTGCTGCTGGGGTTGAAGGAGGAGAGGTTACTTTGGATGCTGGTCAGTCAAGTCAGTATCTCACTGCCTTGTTGCTCCTTGGTCCCCTTACAAGACAAGGACTGAGGATAAGGGTTACTGATTTGGTGTCAGCACCATACGTGGAGATTACGCTTGCAATGATGAGGGCTTTCGGAGTTGAAGTGGCAAGGGAGGGAGATGTGTTCGTTGTTCCACCTGGTGGATATCGTGCAACTACGTATGCTATAGAACCCGACGCAAGTACTGCTTCTTACTTCTTCGCAGCTGCTGCTTTGACTCCTGGAGCTGAAGTGACTGTACCTGGGTTAGGCACGGGAGCACTTCAAGGAGATTTGGGATTTGTAGATGTCTTAAGGAGAATGGGAGCCGAGGTGTCCGTAGGAGCTGATGCAACCACTGTTAGAGGAACTGGTGAATTGCGTGGCCTTACAGCCAACATGAGAGACATAAGTGATACGATGCCGACCCTCGCTGCAATAGCACCCTTTGCTAGTGCTCCAGTTAGAATCGAGGATGTTGCCAACACTCGTGTCAAAGAATGTGACAGACTTGAGGCTTGTGCAGAGAACCTTAGGAGGTTGGGAGTAAGGGTTGCAACGGGTCCGGACTGGATTGAGATACACCCTGGTCCAGCTACTGGTGCTCAAGTCACAAGCTATGGTGATCACAGAATTGTGATGTCATTTGCAGTGACTGGACTTCGTGTGCCTGGGATCAGCTTCGACGACCCTGGCTGTGTTCGTAAGACTTTTCCTGGGTTTCACGAGGCTTTCGCAGAATTGAGGCGTGGCATTGGGAGCTGA
modifications: In-frame fusion of dgt-28 v5 and TraP13 v2
T1 Families Tested Segregating at 1 Locus (%) [1]: 75%
% Injury Ave [2, 4]: 14.0%
% Injury Range (%) [2, 4]: 0-50%
No. plants with 20-40% injury [2, 4]: 0
No. plants with <20% injury [2, 4]: 4
No. plants with >40% injury [2, 4]: 1
% Injury Ave [2, 5]: 17.6%
% Injury Range (%) [2, 5]: 0-50%
No. plants with 20-40% injury [2, 5]: 1
No. plants with <20% injury [2, 5]: 3
No. plants with >40% injury [2, 5]: 1
% Injury Ave [2, 6]: 39.0%
% Injury Range (%) [2, 6]: 5-100%
No. plants with 20-40% injury [2, 6]: 0
No. plants with <20% injury [2, 6]: 3
No. plants with >40% injury [2, 6]: 2
% Injury Ave [2, 7]: 31.2%
% Injury Range (%) [2, 7]: 18-70%
No. plants with 20-40% injury [2, 7]: 2
No. plants with <20% injury [2, 7]: 2
No. plants with >40% injury [2, 7]: 1
% Injury Ave [2, 8]: 39.0%
% Injury Range (%) [2, 8]: 5-100%
No. plants with 20-40% injury [2, 8]: 0
No. plants with <20% injury [2, 8]: 3
No. plants with >40% injury [2, 8]: 2
% Injury Ave [2, 9]: 5.0%
% Injury Range (%) [2, 9]: 0-20%
No. plants with 20-40% injury [2, 9]: 1
No. plants with <20% injury [2, 9]: 3
No. plants with >40% injury [2, 9]: 0
% Injury Ave [2, 10]: 5.0%
% Injury Range (%) [2, 10]: 0-20%
No. plants with 20-40% injury [2, 10]: 1
No. plants with <20% injury [2, 10]: 3
No. plants with >40% injury [2, 10]: 0
% Injury Ave [2, 11]: 10.0%
% Injury Range (%) [2, 11]: 0-20%
No. plants with 20-40% injury [2, 11]: 2
No. plants with <20% injury [2, 11]: 2
No. plants with >40% injury [2, 11]: 0
% Injury Ave [2, 12]: 15.0%
% Injury Range (%) [2, 12]: 5-30%
No. plants with 20-40% injury [2, 12]: 2
No. plants with <20% injury [2, 12]: 2
No. plants with >40% injury [2, 12]: 0

B2: DGT-31 (v1): Streptomyces EPSP synthase enzyme (GENBANK YP_004922608.1) (protein)
chain: MTVIDIPGSKSVTARALFLAAAADGTTTLLRPLHSDDTEGFTEGLTRLGYAVVREPDRWHIEGRPSGPAAADAEVHCRDGATTARFLPTLAAAAASGTYRFDASAQMRRRPLAPLTEALRTLGVDLRHDGAEGHHPLTIQASGVKGGGLTLDAGESSQYLTALLMLGPLTAEGLRIEVTELVSAPYVEITLAMMRGFGVEVVREGNTFTVPPGGYRATTYAIEPDASTASYFFAAAALTGREVTVPGLGTGALQGDLRFTEVLRRMDADVRTTSDSTTVRSDGRLAGLTVNMRDISDTMPTLAAIAPYASSPVRIEDVANTRVKECDRLEACAQNLRSMGITVRTGPDWIEIHPGTPRPTEIATHGDHRIVMSFAVAGLRTPGMSYDDPGCVRKTFPRFHEEFAAFVERSSAGE
modifications: DGT-31 v3 nucleotide
Herbicide tolerance ([3]; with transit peptide TraP8): improved tolerance
Herbicide tolerance ([3]; with transit peptide TraP23, compared to the negative control): slight herbicide tolerance

B3: DGT-33: Streptomyces EPSP synthase enzyme (GENBANK NC_010572) (protein, listed as Streptomyces griseus)
chain: MGAVTVIDIPGSKSVTARALFLAAAADGTTTLLRPLRSDDTEGFAEGLKNLGYAVEQEADRWRVEGRPDGPAAPDADVYCRDGATTARFLPTLVAAAASGTYRFDASAQMRRRPLAPLTRALTALGVDLRHGGEEGHHPLTVRAAGIEGGDVVLDAGESSQYLTALLMLGPLTAKGLRIEVTDLVSAPYVEITLAMMRDFGVDVSREGNTFTVPSGGYRATAYAVEPDASTASYFFAAAALTGREVTVPGLGIGALQGDLRFVDVLRDMGAEVSVGPDATTVRSTGRLRGITVTMRDISDTMPTLAAIAPHADGPVRIEDVANTRVKECDRLEACAQNLRAMGITVHTGHDWIEILPGTPKPTGIATHGDHRIVMSFAVAGLLTPGLTYDDPGCVRKTFPRFHEVFADFAASPQA
Glyphosate tolerance [2]: significant tolerance to glyphosate
Herbicide tolerance [3, 13]: robust tolerance to glyphosate

B4: DGT-32: Streptomyces EPSP synthase enzyme (GENBANK ZP_04696613) (protein, listed as Streptomyces roseosporus)
chain: MTVIEIPGSKSVTARALFLAAAADGTTTLLRPLRSDDTEGFAEGLRNLGYAVEQEADRWRVQGRPAGPAATEADVYCRDGATTARFLPTLAAAAASGTYRFDASAQMRRRPLAPLTRALTALGVDLRHEGADGHHPLTVRAAGIEGGELTLDAGESSQYLTALLMLGPLTTKGLRIEVTELVSAPYVEITLAMMRDFGVEVEREGNTFTVPSPSSRLRSNRGGPIGGYRATTYAVEPDASTASYFFAAAALTGREVTVPGLGTGALQGDLRFVDVLREMGAEVSVGPDATTVRSTGRLRGITVNMRDISDTMPTLAAIAPYADGPVVIEDVANTRVKECDRLEACAENLRAMGITVHTGPDRIEIHPGTPKPTGIATHGDHRIVMSFAVAGLRTPGLTYDDPGCVRKTFPRFHEVFADFAHDLEGR
Glyphosate tolerance [2]: significant tolerance to glyphosate
Herbicide tolerance [3, 13]: robust tolerance to glyphosate
